Data: US9708383 (Novo Nordisk, dated 2017)
*1 amine or outer side, *2 acyl side, *3 side chain or, on linkers, in order; H or OH if unused. Where no end group is shown, it is not given here. Side-chain parts run from the residue outwards. The star is where a group is joined. Decanoyl(10-(4-HOOC-PhO)) = O=C(O)c1ccc(OCCCCCCCCCC(=O)*)cc1; γGlu = O=C(O)[C@H](CCC(=O)[*:2])N[*:1]; Hexanoyl(6-Ph) = O=C(CCCCCc1ccccc1)*; 13‑carboxytridecanoyl = C14 diacid; Butanoyl(4-Ph) = O=C(CCCc1ccccc1)*; AEEA = NCCOCCOCC(=O)O; Ahx = NCCCCCC(=O)O

B1: GLP-1 derivative of Example 97: [Lys,Glu22,Arg34]-GLP-1-(7-37)-peptide (peptide)
peptide: HAEGTFTSDVSK([AEEA-AEEA-γGlu-γGlu-13‑carboxytridecanoyl])YLEEQAAK([AEEA-AEEA-γGlu-γGlu-13‑carboxytridecanoyl])EFIAWLVRGRG
notes: Name prints Lys without its number (Lys18)

Biological target: T1, human GLP-1 receptor (human, UniProt P43220 24-463)
T1 construct: whole, on cells; Used as purified membranes of the transfected hamster cells, not whole cells; also called hGLP-1
Test: SPA, displacement of 125I-GLP-1(7-36)NH2, 0.005% HSA
Method: (§1) A shift in the binding affinity, $IC50$, is an indication that the derivative in question binds to albumin, and thereby a prediction of a potential protracted pharmacokinetic profile of the derivative in question in animal models.
(§2) 25 ul (microliter) of test compounds are added to Optiplate. HSA ("high albumin" experiment containing 2% HSA), or buffer ("low albumin" experiment containing 0.005% HSA), was added (50 ul). 5-10 µg protein/sample was added (50 ul) corresponding to 0.1-0.2 mg protein/ml (to be preferably optimised for each membrane preparation). SPA-particles (Wheatgerm agglutinin SPA beads, Perkin Elmer, #RPNQ0001) were added in an amount of 0.5 mg/well (50 ul). […] The plates were sealed with PlateSealer and incubated for 120 minutes at 30° C. while shaking. The plates were centrifuged (1500 rpm, 10 min) and counted in Topcounter.

Row | Binder | IC50
1 | HAEGTFTSDVSK([AEEA-AEEA-γGlu-13‑carboxytridecanoyl])YLEEQAAK([AEEA-AEEA-γGlu-13‑carboxytridecanoyl])EFIAWLVRGRG [GLP-1 derivative of Example 96: [Lys18,Glu22,Arg34]-GLP-1-(7-37)-peptide] | < 1000 nM
2 | HAEGTFTSDVSK([AEEA-AEEA-γGlu-13‑carboxytridecanoyl])YLEEQAVRK([AEEA-AEEA-γGlu-13‑carboxytridecanoyl])FIAHLVQGRG [GLP-1 derivative of Example 118: [Lys18,Glu22,Val25,Arg26,Lys27,His31,Gln34]-GLP-1-(7-37)-peptide] | < 1000 nM
3 | HAEGTFTSDVSK([AEEA-AEEA-γGlu-Ahx-γGlu-Hexanoyl(6-Ph)])YLEGQAAK([AEEA-AEEA-γGlu-Ahx-γGlu-Hexanoyl(6-Ph)])EFIAWLVRGRG [GLP-1 derivative of Example 129: [Lys18,Arg34]-GLP-1-(7-37)-peptide] | < 1000 nM
4 | HAEGTFTSDVSK([AEEA-AEEA-γGlu-2‑(4-(4-fluorophenoxy)phenyl)acetyl])YLEK([AEEA-AEEA-γGlu-2‑(4-(4-fluorophenoxy)phenyl)acetyl])QAAREFIAWLVQGRG [GLP-1 derivative of Example 120: [Lys18,Lys22,Arg26,Gln34]-GLP-1-(7-37)-peptide] | < 1000 nM
5 | B1 | < 1000 nM
6 | HAEGTFTSDVSK([AEEA-AEEA-AEEA-AEEA-γGlu-13‑carboxytridecanoyl])YLEEQAVREFIAK([AEEA-AEEA-AEEA-AEEA-γGlu-13‑carboxytridecanoyl])LVRGRG [GLP-1 derivative of Example 98: [Lys18,Glu22,Val25,Arg26,Lys31,Arg34]-GLP-1-(7-37)-peptide] | < 1000 nM
7 | HAEGTFTSDVSK([AEEA-AEEA-AEEA-AEEA-AEEA-AEEA-γGlu-13‑carboxytridecanoyl])YLEEQAVREFIAK([AEEA-AEEA-AEEA-AEEA-AEEA-AEEA-γGlu-13‑carboxytridecanoyl])LVRGRG [GLP-1 derivative of Example 99: [Lys18,Glu22,Val25,Arg26,Lys31,Arg34]-GLP-1-(7-37)-peptide] | < 1000 nM
8 | HAEGTFTSDVSK([AEEA-AEEA-γGlu-Ahx-γGlu-Butanoyl(4-Ph)])YLEGQAAK([AEEA-AEEA-γGlu-Ahx-γGlu-Butanoyl(4-Ph)])EFIAWLVRGRG [GLP-1 derivative of Example 110: [Lys18,Arg34]-GLP-1-(7-37)-peptide] | < 1000 nM
9 | HAEGTFTSDVSK([γGlu-AEEA-AEEA-γGlu-13‑carboxytridecanoyl])YLEEQAVREFIAK([γGlu-AEEA-AEEA-γGlu-13‑carboxytridecanoyl])LVRGRG [GLP-1 derivative of Example 111: [Lys18,Glu22,Val25,Arg26,Lys31,Arg34]-GLP-1-(7-37)-peptide] | < 1000 nM
10 | HAEGTFTSDVSK([γGlu-AEEA-AEEA-Decanoyl(10-(4-HOOC-PhO))])YLEGQAAK([γGlu-AEEA-AEEA-Decanoyl(10-(4-HOOC-PhO))])EFIAWLVRGRG [GLP-1 derivative of Example 106: [Lys18,Arg34]-GLP-1-(7-37)-peptide] | < 1000 nM
11 | HAEGTFTSDVSK([γGlu-AEEA-AEEA-13‑carboxytridecanoyl])YLEGQAVREFIAK([γGlu-AEEA-AEEA-13‑carboxytridecanoyl])LVRGRG [GLP-1 derivative of Example 104: [Lys18,Val25,Arg26,Lys31,Arg34]-GLP-1-(7-37)-peptide] | < 1000 nM
12 | HAEGTFTSDVSK([AEEA-AEEA-γGlu-γGlu-γGlu-13‑carboxytridecanoyl])YLEEQAVREFIAK([AEEA-AEEA-γGlu-γGlu-γGlu-13‑carboxytridecanoyl])LVRGRG [GLP-1 derivative of Example 101: [Lys18,Glu22,Val25,Arg26,Lys31,Arg34]-GLP-1-(7-37)-peptide] | < 1000 nM
13 | HAEGTFTSDVSK([AEEA-AEEA-γGlu-2‑(2-(trifluoromethyl)phenyl)acetyl])YLEK([AEEA-AEEA-γGlu-2‑(2-(trifluoromethyl)phenyl)acetyl])QAAREFIAWLVQGRG [GLP-1 derivative of Example 125: [Lys18,Lys22,Arg26,Gln34]-GLP-1-(7-37)-peptide] | < 1000 nM
14 | HAEGTFTSDVSK([AEEA-AEEA-γGlu-Decanoyl(10-(4-HOOC-PhO))])YLEGQAVREFIAK([AEEA-AEEA-γGlu-Decanoyl(10-(4-HOOC-PhO))])LVRGRG [GLP-1 derivative of Example 107: [Lys18,Val25,Arg26,Lys31,Arg34]-GLP-1-(7-37)-peptide] | < 1000 nM

Biological target: T1, human GLP-1 receptor
Test: SPA, 2.0% vs 0.005% HSA
Method: as §1, §2

Row | Binder | ratio IC50 high HSA/IC50 low HSA
15 | HAEGTFTSDVSK([AEEA-AEEA-γGlu-13‑carboxytridecanoyl])YLEEQAAK([AEEA-AEEA-γGlu-13‑carboxytridecanoyl])EFIAWLVRGRG [GLP-1 derivative of Example 96: [Lys18,Glu22,Arg34]-GLP-1-(7-37)-peptide] | > 1
16 | HAEGTFTSDVSK([AEEA-AEEA-γGlu-13‑carboxytridecanoyl])YLEEQAVRK([AEEA-AEEA-γGlu-13‑carboxytridecanoyl])FIAHLVQGRG [GLP-1 derivative of Example 118: [Lys18,Glu22,Val25,Arg26,Lys27,His31,Gln34]-GLP-1-(7-37)-peptide] | > 1
17 | HAEGTFTSDVSK([AEEA-AEEA-γGlu-Ahx-γGlu-Hexanoyl(6-Ph)])YLEGQAAK([AEEA-AEEA-γGlu-Ahx-γGlu-Hexanoyl(6-Ph)])EFIAWLVRGRG [GLP-1 derivative of Example 129: [Lys18,Arg34]-GLP-1-(7-37)-peptide] | > 1
18 | HAEGTFTSDVSK([AEEA-AEEA-γGlu-2‑(4-(4-fluorophenoxy)phenyl)acetyl])YLEK([AEEA-AEEA-γGlu-2‑(4-(4-fluorophenoxy)phenyl)acetyl])QAAREFIAWLVQGRG [GLP-1 derivative of Example 120: [Lys18,Lys22,Arg26,Gln34]-GLP-1-(7-37)-peptide] | > 1
19 | B1 | > 1
20 | HAEGTFTSDVSK([AEEA-AEEA-AEEA-AEEA-γGlu-13‑carboxytridecanoyl])YLEEQAVREFIAK([AEEA-AEEA-AEEA-AEEA-γGlu-13‑carboxytridecanoyl])LVRGRG [GLP-1 derivative of Example 98: [Lys18,Glu22,Val25,Arg26,Lys31,Arg34]-GLP-1-(7-37)-peptide] | > 1
21 | HAEGTFTSDVSK([AEEA-AEEA-AEEA-AEEA-AEEA-AEEA-γGlu-13‑carboxytridecanoyl])YLEEQAVREFIAK([AEEA-AEEA-AEEA-AEEA-AEEA-AEEA-γGlu-13‑carboxytridecanoyl])LVRGRG [GLP-1 derivative of Example 99: [Lys18,Glu22,Val25,Arg26,Lys31,Arg34]-GLP-1-(7-37)-peptide] | > 1
22 | HAEGTFTSDVSK([AEEA-AEEA-γGlu-Ahx-γGlu-Butanoyl(4-Ph)])YLEGQAAK([AEEA-AEEA-γGlu-Ahx-γGlu-Butanoyl(4-Ph)])EFIAWLVRGRG [GLP-1 derivative of Example 110: [Lys18,Arg34]-GLP-1-(7-37)-peptide] | > 1
23 | HAEGTFTSDVSK([γGlu-AEEA-AEEA-γGlu-13‑carboxytridecanoyl])YLEEQAVREFIAK([γGlu-AEEA-AEEA-γGlu-13‑carboxytridecanoyl])LVRGRG [GLP-1 derivative of Example 111: [Lys18,Glu22,Val25,Arg26,Lys31,Arg34]-GLP-1-(7-37)-peptide] | > 1
24 | HAEGTFTSDVSK([γGlu-AEEA-AEEA-Decanoyl(10-(4-HOOC-PhO))])YLEGQAAK([γGlu-AEEA-AEEA-Decanoyl(10-(4-HOOC-PhO))])EFIAWLVRGRG [GLP-1 derivative of Example 106: [Lys18,Arg34]-GLP-1-(7-37)-peptide] | > 1
25 | HAEGTFTSDVSK([γGlu-AEEA-AEEA-13‑carboxytridecanoyl])YLEGQAVREFIAK([γGlu-AEEA-AEEA-13‑carboxytridecanoyl])LVRGRG [GLP-1 derivative of Example 104: [Lys18,Val25,Arg26,Lys31,Arg34]-GLP-1-(7-37)-peptide] | > 1
26 | HAEGTFTSDVSK([AEEA-AEEA-γGlu-γGlu-γGlu-13‑carboxytridecanoyl])YLEEQAVREFIAK([AEEA-AEEA-γGlu-γGlu-γGlu-13‑carboxytridecanoyl])LVRGRG [GLP-1 derivative of Example 101: [Lys18,Glu22,Val25,Arg26,Lys31,Arg34]-GLP-1-(7-37)-peptide] | > 1
27 | HAEGTFTSDVSK([AEEA-AEEA-γGlu-2‑(2-(trifluoromethyl)phenyl)acetyl])YLEK([AEEA-AEEA-γGlu-2‑(2-(trifluoromethyl)phenyl)acetyl])QAAREFIAWLVQGRG [GLP-1 derivative of Example 125: [Lys18,Lys22,Arg26,Gln34]-GLP-1-(7-37)-peptide] | > 1
28 | HAEGTFTSDVSK([AEEA-AEEA-γGlu-Decanoyl(10-(4-HOOC-PhO))])YLEGQAVREFIAK([AEEA-AEEA-γGlu-Decanoyl(10-(4-HOOC-PhO))])LVRGRG [GLP-1 derivative of Example 107: [Lys18,Val25,Arg26,Lys31,Arg34]-GLP-1-(7-37)-peptide] | > 1
